In assay [1] the target is T1, cynomolgus monkey FcγRIIa3 extracellular domain, His-tagged (cynomolgus monkey).
T1 construct: also called cyno FcγRIIa3; cynoFcgRIIa3; not shown: C-terminal His-tag
T1 chain: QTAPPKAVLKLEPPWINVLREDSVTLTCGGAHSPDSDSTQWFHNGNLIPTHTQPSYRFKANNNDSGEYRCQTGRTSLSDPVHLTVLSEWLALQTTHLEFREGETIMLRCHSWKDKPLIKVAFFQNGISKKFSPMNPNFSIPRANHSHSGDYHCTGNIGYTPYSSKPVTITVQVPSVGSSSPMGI
The assay can be described thus: SPR (BIACORE), captured antibody, FcgR as analyte. Background: SPR reads the build-up and loss of mass on a sensor chip optically.

Assay [2] addresses T2, human FcγRIIb extracellular domain, His-tagged (human, UniProt P31994 43-217).
T2 construct: also called FcgRIIb (human); not shown: C-terminal His-tag
T2 sequence: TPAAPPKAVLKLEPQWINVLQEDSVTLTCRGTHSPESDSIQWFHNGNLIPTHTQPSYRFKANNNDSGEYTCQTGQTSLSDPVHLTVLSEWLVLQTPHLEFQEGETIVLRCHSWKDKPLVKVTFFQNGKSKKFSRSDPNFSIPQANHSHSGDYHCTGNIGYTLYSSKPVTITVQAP
The assay can be described thus: SPR (BIACORE); KD of SG1 divided by KD of variant.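 Note: relative to parent M103205H795-SG1 carrying the SG1 human heavy chain constant region.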

Assay [3] deals with T3, cynomolgus monkey FcγRIIa1 extracellular domain, His-tagged (cynomolgus monkey).
T3 construct: also called cyno FcγRIIa1; cynoFcgRIIa1; not shown: C-terminal His-tag
T3 chain: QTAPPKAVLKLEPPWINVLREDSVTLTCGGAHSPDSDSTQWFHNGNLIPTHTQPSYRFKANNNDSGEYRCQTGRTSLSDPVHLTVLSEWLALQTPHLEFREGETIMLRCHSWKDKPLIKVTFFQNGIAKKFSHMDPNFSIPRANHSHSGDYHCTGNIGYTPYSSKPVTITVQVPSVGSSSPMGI
As to the kind of experiment: SPR (BIACORE); KD of SG1 divided by KD of variant.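 Note: relative to parent M103205H795-SG1 carrying the SG1 human heavy chain constant region.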

For assay [4], the target named is T1, cynomolgus monkey FcγRIIa3 …. As to the kind of experiment: SPR (BIACORE); KD of SG1 divided by KD of variant.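 Note: relative to parent M103205H795-SG1 carrying the SG1 human heavy chain constant region.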
For assay [5], the target named is T4, cynomolgus monkey FcγRIIIaS extracellular domain, His-tagged (cynomolgus monkey, UniProt Q8SPW2 21-206 at identity 1.00)).
T4 construct: also called cyno FcγRIIIaS; cynoFcγRIIIaS; not shown: C-terminal His-tag
T4 chain: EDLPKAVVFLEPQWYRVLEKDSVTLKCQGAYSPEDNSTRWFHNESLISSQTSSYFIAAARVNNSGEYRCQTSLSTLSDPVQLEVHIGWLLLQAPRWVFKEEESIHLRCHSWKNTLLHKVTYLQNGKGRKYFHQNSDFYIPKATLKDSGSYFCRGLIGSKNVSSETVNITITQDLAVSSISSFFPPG
The assay can be described thus: SPR (BIACORE); KD of SG1 divided by KD of variant.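 Note: relative to parent M103205H795-SG1 carrying the SG1 human heavy chain constant region.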

Assay [6] addresses T5, cynomolgus monkey FcγRIIb extracellular domain, His-tagged (cynomolgus monkey).
T5 construct: also called cyno FcγRIIb; cynoFcγRIIb; not shown: C-terminal His-tag
T5 chain: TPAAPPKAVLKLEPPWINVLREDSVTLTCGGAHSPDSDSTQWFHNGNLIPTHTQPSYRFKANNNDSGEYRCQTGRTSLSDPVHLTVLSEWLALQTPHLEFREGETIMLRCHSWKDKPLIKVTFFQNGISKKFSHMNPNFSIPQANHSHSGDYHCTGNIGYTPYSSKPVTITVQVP
As to the kind of experiment: SPR (BIACORE); KD of SG1 divided by KD of variant.

For assay [7], the target named is T6, human FcγRIIIaV extracellular domain, His-tagged (human, UniProt P08637 17-208).
T6 construct: also called FcgRIIIaV; not shown: C-terminal His-tag
T6 sequence (P08637 17-208 F176V): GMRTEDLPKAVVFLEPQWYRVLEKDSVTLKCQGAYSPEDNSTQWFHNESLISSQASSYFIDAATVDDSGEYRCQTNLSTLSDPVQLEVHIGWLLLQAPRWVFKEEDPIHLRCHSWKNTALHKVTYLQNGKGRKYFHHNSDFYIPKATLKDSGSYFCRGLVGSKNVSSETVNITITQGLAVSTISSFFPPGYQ
The assay can be described thus: SPR (BIACORE); KD of SG1 divided by KD of variant.

Assay [8] has as its target T7, human FcγRIIaH extracellular domain, His-tagged (human, UniProt P12318 34-217).
T7 construct: also called human FcγRIIa (type H); FcgRIIaH; not shown: C-terminal His-tag
T7 sequence: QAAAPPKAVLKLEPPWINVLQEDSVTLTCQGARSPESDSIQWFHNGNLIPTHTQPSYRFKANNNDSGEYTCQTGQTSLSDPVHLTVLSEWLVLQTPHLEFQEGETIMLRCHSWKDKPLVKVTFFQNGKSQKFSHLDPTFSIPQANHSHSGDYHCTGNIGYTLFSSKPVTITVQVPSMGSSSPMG
As to the kind of experiment: SPR (BIACORE); KD of SG1 divided by KD of variant.

Assay [9] deals with T8, cynomolgus monkey FcγRIIa2 extracellular domain, His-tagged (cynomolgus monkey).
T8 construct: also called cyno FcγRIIa2; cynoFcgRIIa2; not shown: C-terminal His-tag
T8 chain: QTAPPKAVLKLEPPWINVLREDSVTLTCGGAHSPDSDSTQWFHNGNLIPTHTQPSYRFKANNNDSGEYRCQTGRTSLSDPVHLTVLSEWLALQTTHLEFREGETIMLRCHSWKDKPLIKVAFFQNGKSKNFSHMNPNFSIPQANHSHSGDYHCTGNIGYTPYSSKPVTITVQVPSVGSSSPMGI
The assay can be described thus: SPR (BIACORE); KD of SG1 divided by KD of variant.

B1: M103205H795-MY470/M103202L889-SK1 (antibody, human IgG1, kappa)
heavy: QVTLKESGPVLVKPTETLTLTCTVSGIDLSHDDISWVRQAPGKGLEWVGIISYAGSTYYASWAKGRLTISKDTSKNQVVLTMTNMDPVDTATYYCARGVPAYSHGGDLWGQGTLVTVSSASTKGPSVFPLAPSSKSTSGGTAALGCLVKDYFPEPVTVSWNSGALTSGVHTFPAVLQSSGLYSLSSVVTVPSSSLGTQTYICNVNHKPSNTKVDKKVEPKSCDKTHTCPPCPQPELLTGPSVFLFPPKPKDTLMISRTPEVTCVVVDVSDEDPEVKFNWYVDGVEVHNAKTKPREEQYNSTYRVVSVLTVLHQDWLNGKEYKCKVSNKALPKPIEKTISKAKGQPREPQVYTLPPSREEMTKNQVSLTCLVKGFYPSDIAVEWESNGQPENNYKTTPPVLDSDGSFFLYSKLTVDKSRWQQGNVFSCSVMHEALHNHYTQKSLSLSP
light: DIVMTQSPATLSLSPGERATLSCTSSQSVYHANWLSWFQQKPGQPPKLLIYWASTLAYGVPSRFSGSGSGTDFTLTISSLQPEDAATYYCAGGYGGGRYAFGQGTKVEIKRTVAAPSVFIFPPSDEQLKSGTASVVCLLNNFYPREAKVQWKVDNALQSGNSQESVTEQDSKDSTYSLSSTLTLSKADYEKHKVYACEVTHQGLSSPVTKSFNRGEC
notes: copies: 2 + 2
In general, Kd refers to the constant that tells how readily two partners part at equilibrium. Regarding B1, binding in [1] was put at a Kd of 4.9 µM. The “KD fold (SG1 = 1)” value in assay [2] stood at 2 fold; in assay [3], 1.5 fold; in assay [4] it was 3.5 fold; in assay [5], 0.2 fold; in assay [6], 3.3 fold; in assay [7], 0.2 fold. Also, the results for the “KD fold (SG1 = 1)” value in assay [8] and in [9] were 3.3 fold and 2.8 fold, respectively.

B2: M103205H795-MY473/M103202L889-SK1 (antibody, human IgG1, kappa)
heavy: QVTLKESGPVLVKPTETLTLTCTVSGIDLSHDDISWVRQAPGKGLEWVGIISYAGSTYYASWAKGRLTISKDTSKNQVVLTMTNMDPVDTATYYCARGVPAYSHGGDLWGQGTLVTVSSASTKGPSVFPLAPSSKSTSGGTAALGCLVKDYFPEPVTVSWNSGALTSGVHTFPAVLQSSGLYSLSSVVTVPSSSLGTQTYICNVNHKPSNTKVDKKVEPKSCDKTHTCPPCPTPELLTGPSVFLFPPKPKDTLMISRTPEVTCVVVDVSDEDPEVKFNWYVDGVEVHNAKTKPREEQYNSTYRVVSVLTVLHQDWLNGKEYKCKVSNKALPKPIEKTISKAKGQPREPQVYTLPPSREEMTKNQVSLTCLVKGFYPSDIAVEWESNGQPENNYKTTPPVLDSDGSFFLYSKLTVDKSRWQQGNVFSCSVMHEALHNHYTQKSLSLSP
light: DIVMTQSPATLSLSPGERATLSCTSSQSVYHANWLSWFQQKPGQPPKLLIYWASTLAYGVPSRFSGSGSGTDFTLTISSLQPEDAATYYCAGGYGGGRYAFGQGTKVEIKRTVAAPSVFIFPPSDEQLKSGTASVVCLLNNFYPREAKVQWKVDNALQSGNSQESVTEQDSKDSTYSLSSTLTLSKADYEKHKVYACEVTHQGLSSPVTKSFNRGEC
notes: copies: 2 + 2
Take B2: binding in [1] was put at a Kd of 5.5 µM. For the same molecule, the “KD fold (SG1 = 1)” value turned out to be 2.1 fold in assay [2]; 2 fold in [3]; 3.1 fold in assay [4]; 0.2 fold in [5]; 3.1 fold in assay [6]; 0.2 fold in assay [7]. Besides, the “KD fold (SG1 = 1)” value stood at 3.1 fold in assay [8] and 2 fold in assay [9].

B3: M103205H795-MY472/M103202L889-SK1 (antibody, human IgG1, kappa)
heavy: QVTLKESGPVLVKPTETLTLTCTVSGIDLSHDDISWVRQAPGKGLEWVGIISYAGSTYYASWAKGRLTISKDTSKNQVVLTMTNMDPVDTATYYCARGVPAYSHGGDLWGQGTLVTVSSASTKGPSVFPLAPSSKSTSGGTAALGCLVKDYFPEPVTVSWNSGALTSGVHTFPAVLQSSGLYSLSSVVTVPSSSLGTQTYICNVNHKPSNTKVDKKVEPKSCDKTHTCPPCPSPELLTGPSVFLFPPKPKDTLMISRTPEVTCVVVDVSDEDPEVKFNWYVDGVEVHNAKTKPREEQYNSTYRVVSVLTVLHQDWLNGKEYKCKVSNKALPKPIEKTISKAKGQPREPQVYTLPPSREEMTKNQVSLTCLVKGFYPSDIAVEWESNGQPENNYKTTPPVLDSDGSFFLYSKLTVDKSRWQQGNVFSCSVMHEALHNHYTQKSLSLSP
light: DIVMTQSPATLSLSPGERATLSCTSSQSVYHANWLSWFQQKPGQPPKLLIYWASTLAYGVPSRFSGSGSGTDFTLTISSLQPEDAATYYCAGGYGGGRYAFGQGTKVEIKRTVAAPSVFIFPPSDEQLKSGTASVVCLLNNFYPREAKVQWKVDNALQSGNSQESVTEQDSKDSTYSLSSTLTLSKADYEKHKVYACEVTHQGLSSPVTKSFNRGEC
notes: copies: 2 + 2
In [1], B3 displayed a Kd of 5.1 µM. Also, the “KD fold (SG1 = 1)” value in assay [2] came to 1.8 fold; in [3], 1.5 fold; in assay [4], 3.3 fold; in assay [5], 0.2 fold; in [6] it was 2.7 fold; in [7], 0.1 fold. Moreover, the “KD fold (SG1 = 1)” value in assay [8] was 3.8 fold; in assay [9], 2.4 fold.

B4: M103205H795-MY471/M103202L889-SK1 (antibody, human IgG1, kappa)
heavy: QVTLKESGPVLVKPTETLTLTCTVSGIDLSHDDISWVRQAPGKGLEWVGIISYAGSTYYASWAKGRLTISKDTSKNQVVLTMTNMDPVDTATYYCARGVPAYSHGGDLWGQGTLVTVSSASTKGPSVFPLAPSSKSTSGGTAALGCLVKDYFPEPVTVSWNSGALTSGVHTFPAVLQSSGLYSLSSVVTVPSSSLGTQTYICNVNHKPSNTKVDKKVEPKSCDKTHTCPPCPRPELLTGPSVFLFPPKPKDTLMISRTPEVTCVVVDVSDEDPEVKFNWYVDGVEVHNAKTKPREEQYNSTYRVVSVLTVLHQDWLNGKEYKCKVSNKALPKPIEKTISKAKGQPREPQVYTLPPSREEMTKNQVSLTCLVKGFYPSDIAVEWESNGQPENNYKTTPPVLDSDGSFFLYSKLTVDKSRWQQGNVFSCSVMHEALHNHYTQKSLSLSP
light: DIVMTQSPATLSLSPGERATLSCTSSQSVYHANWLSWFQQKPGQPPKLLIYWASTLAYGVPSRFSGSGSGTDFTLTISSLQPEDAATYYCAGGYGGGRYAFGQGTKVEIKRTVAAPSVFIFPPSDEQLKSGTASVVCLLNNFYPREAKVQWKVDNALQSGNSQESVTEQDSKDSTYSLSSTLTLSKADYEKHKVYACEVTHQGLSSPVTKSFNRGEC
notes: copies: 2 + 2
In assay [1], B4 yielded a Kd of 4.5 µM. Also, the “KD fold (SG1 = 1)” value is 1.8 fold in assay [2]; 1.2 fold in assay [3]; 3.8 fold in assay [4]; 0.2 fold in assay [5]; 2.6 fold in assay [6]; 0.2 fold in assay [7]. In addition, the entries for the “KD fold (SG1 = 1)” value in [8] and in assay [9] were 3 fold and 2.4 fold, respectively.

The values are drawn from patent US20200317768A1 (published 2020).
